Results taken from article PMC5847591.

Target: NY-ESO-1_(60–72)–HLA-B*07:02 complex (human)
Assay: SPR

Chain of KFJ4 TCR, soluble ectodomain (TRAV13-1 α-chain) (P01848 whole entry, looked up, the tested form may be a part): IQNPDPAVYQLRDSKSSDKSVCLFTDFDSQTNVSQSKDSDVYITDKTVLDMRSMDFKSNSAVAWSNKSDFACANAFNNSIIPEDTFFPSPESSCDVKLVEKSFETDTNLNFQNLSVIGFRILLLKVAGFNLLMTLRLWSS
Chain of KFJ15 TCR, soluble ectodomain (P01848 whole entry, looked up, the tested form may be a part): as above

A Kd of 41.5 µM was found for “KFJ15 TCR, soluble ectodomain (from UniProt P01848)” in this work.

A Kd of 52.1 µM and a koff of 0.12 s⁻¹ were found for “KFJ4 TCR, soluble ectodomain (TRAV13-1 α-chain) (from UniProt P01848)” in this work.

A Kd of 40.6 µM and a koff of 0.109 s⁻¹ were found for “KFJ37 TCR, soluble ectodomain (from UniProt A0A0B4J268 18-107; A0A0B4J1U6 20-113)” in this work.
